Laboratory results taken from US20090075291A1, “PEPTIDE-BASED REGULATION OF GAP JUNCTIONS” (The Research Foundation of State University of New York, priority 2006, published 2009).

Legend:
Cx43CT = target: T1, Cx43CT (Rattus norvegicus, UniProt P08050); experiment: Non-biased 12-mer phage display screening against Cx43CT; assay type: binding; conditions: 156 phage plaques sequenced after three rounds; pH 6.5
T1 construct: GST (N, cleaved yes); made in house; host or cells: E. coli BL-21
Protocol: A “library” of bacteriophage, displaying ˜[…] of 2.7×10^9 random 12-mer peptides (Ph.D.-12™ Phage display peptide library kit; New England BioLabs Inc.) was utilized. Wells in 24-well plates were coated with 15 μg of recombinant CT and blocked with 5 mg/ml BSA. After removing the unbound viruses by washing with Tris buffered saline containing 0.5% tween-20 (TBS-T), low affinity binders were eluted with a solution of TBS-containing Cx43CT at a concentration of 100 μg/ml. High affinity binders were recovered by overlaying the well with a culture of E. coli, to allow the tightly bound phage to infect the bacteria. This culture was amplified and the virus was precipitated with PEG. The amplified product was used for the subsequent round of panning. All steps were conducted at pH 6.5 unless otherwise indicated.
After three rounds of selection and amplification, the phage recovered from the last round of binding were grown on a lawn of E. coli for plaque purification. Each plaque, representing a single clone, was picked and amplified. The phage were isolated and analyzed by DNA sequencing.
The library was presented to Cx43CT. After three rounds of selection and amplification, DNA of 156 phage plaques was purified and sequenced. Of the estimated 2.7×10^9 different sequences in the library, 48 unique sequences were recovered. […]

[1] = test system: junctional conductance (Gj) of cell pairs; experiment: Heptanol-induced uncoupling of cell pairs, junctional conductance time course; assay type: cell-based; conditions: compared with cell pairs without peptide
Protocol: Cells were treated with heptanol to reduce coupling and with NL.RXPE.

cardiac Cx43 = target: T2, cardiac Cx43 (Rattus norvegicus, UniProt P08050); experiment: GST pulldown of Cx43 from rat heart lysate, western blot; assay type: binding; conditions: GST fusion on glutathione beads, western blot for Cx43
T2 construct: from tissue; host or cells: rat heart lysate
Description: cDNA coding for […] (SEQ ID NO:11) (“NL.RXPE”) was cloned in-frame with the cDNA for glutathione S-transferase (“GST”). The resulting fusion protein, GST-NL.RXPE was produced in bacteria, and purified by conventional methods. GST-NL.RXPE was bound to glutathione beads and exposed to a rat heart lysate. After washing of the supernatant, the pellets were heated to separate the proteins from the beads. Two additional proteins were produced in parallel, and used as control: GST alone (not fused to any peptide) and GST fused to RXPE. After exposure to heart lysate, the resulting complexes that were “fished out” by the bait proteins were run on SDS-PAGE, transferred to a nitrocellulose membrane, and probed with an antibody for Cx43. […] It is expected that other peptides of formula A-An interact with Cx43, and may be used in the methods of the present invention.

T2 sequence (P08050 whole entry, the tested form may be a part): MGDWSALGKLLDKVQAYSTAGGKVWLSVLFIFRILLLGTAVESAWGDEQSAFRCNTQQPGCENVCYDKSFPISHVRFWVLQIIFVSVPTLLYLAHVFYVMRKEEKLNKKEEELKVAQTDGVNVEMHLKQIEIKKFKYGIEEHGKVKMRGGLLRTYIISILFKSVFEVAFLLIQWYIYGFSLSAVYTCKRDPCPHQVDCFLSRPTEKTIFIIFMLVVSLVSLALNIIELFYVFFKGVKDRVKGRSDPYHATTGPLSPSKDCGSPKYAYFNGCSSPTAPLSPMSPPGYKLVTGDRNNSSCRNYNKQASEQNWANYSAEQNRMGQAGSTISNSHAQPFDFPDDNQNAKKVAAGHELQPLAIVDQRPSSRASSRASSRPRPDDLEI
T1 sequence (P08050 255-382): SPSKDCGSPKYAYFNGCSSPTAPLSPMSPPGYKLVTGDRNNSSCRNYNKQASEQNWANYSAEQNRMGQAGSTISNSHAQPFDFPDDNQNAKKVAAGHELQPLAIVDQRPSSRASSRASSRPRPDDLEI

Row | Sequence | Number of phage plaques from which the sequence was recovered (Cx43CT) | Rate of heptanol-induced uncoupling (normalized Gj) [1] | Recovery of Cx43 with GST-fused peptide as bait (cardiac Cx43)
1 | PRPTMGNLPDVL (Peptide sequence from phage library) | 45 plaques |  | 
2 | SDDLRSPQLHNHMVRRKPRNPR (RXP-containing peptide) [NL.RXPE] |  | uncoupled at a much slower rate | Cx43 was also recovered
